Test results reported in patent publication US20240166750A1 (published 2024).
Numbering of substitutions follows the chain as printed. Numbers in names are those of the source.

B1: human IgG1 antibody specific for protein 4, S239D/I332E + T256D/T307Q, -Kif (antibody)
chain: ASTKGPSVFPLAPSSKSTSGGTAALGCLVKDYFPEPVTVSWNSGALTSGVHTFPAVLQSSGLYSLSSVVTVPSSSLGTQTYICNVNHKPSNTKVDKKVEPKSCDKTHTCPPCPAPELLGGPDVFLFPPKPKDTLMISRDPEVTCVVVDVSHEDPEVKFNWYVDGVEVHNAKTKPREEQYNSTYRVVSVLQVLHQDWLNGKEYKCKVSNKALPAPEEKTISKAKGQPREPQVYTLPPSRDELTKNQVSLTCLVKGFYPSDIAVEWESNGQPENNYKTTPPVLDSDGSFFLYSKLTVDKSRWQQGNVFSCSVMHEALHNHYTQKSLSLSPGK
B2: human IgG1 antibody specific for protein 4, S239D + T256D/T307Q + R292C/V302C, -Kif (antibody)
chain: B1 chain with R175C, V185C, E215I
B3: human IgG1 antibody specific for protein 4, T256D/T307Q + R292C/V302C, -Kif (antibody)
chain: B1 chain with D122S, R175C, V185C, E215I

target: Recombinant human FcγRIIIa-V158 (human, UniProt P08637 17-208); experiment: SPR; -kif
Sequence (P08637 17-208 F176V): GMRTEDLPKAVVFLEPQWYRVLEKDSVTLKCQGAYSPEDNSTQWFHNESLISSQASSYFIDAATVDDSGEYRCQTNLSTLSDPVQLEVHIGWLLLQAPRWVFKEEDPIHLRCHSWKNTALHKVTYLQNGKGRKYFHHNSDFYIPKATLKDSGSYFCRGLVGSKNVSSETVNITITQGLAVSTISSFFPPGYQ

Kd [nM] | Binder
12.3 | B1
87.5 | B2
410 | B3
